Key:
Assay in all cases: peptide microarray (RepliTope), Ala mutagenesis set
Reference peptide no. 43 = target: T1, Reference peptide no. 43
T1 construct: second library: peptide 11 with F(62) to Ala; also called peptide 43
T1 peptide: YKNPKLTRMLTAKFY

Reference peptide no. 49 = target: T2, Reference peptide no. 49
T2 construct: second library: peptide 13 with Y(65) to Ala; also called peptide 49
T2 peptide: TRMLTFKFAMPKKAT

Reference peptide no. 45 = target: T3, Reference peptide no. 45
T3 construct: second library: peptide 13 with F(62) to Ala; also called peptide 45
T3 peptide: TRMLTAKFYMPKKAT

Reference peptide no. 44 = target: T4, Reference peptide no. 44
T4 construct: second library: peptide 12 with F(62) to Ala; also called peptide 44
T4 peptide: PKLTRMLTAKFYMPK

Reference peptide no. 13 = target: T5, Reference peptide no. 13
T5 construct: hIL-2 15-mer, first library, on microarray; also called peptide 13
T5 peptide: TRMLTFKFYMPKKAT

Reference peptide no. 47 = target: T6, Reference peptide no. 47
T6 construct: second library: peptide 11 with Y(65) to Ala; also called peptide 47
T6 peptide: YKNPKLTRMLTFKFA

Reference peptide no. 42 = target: T7, Reference peptide no. 42
T7 construct: second library: peptide 10 with F(62) to Ala; also called peptide 42
T7 peptide: INNYKNPKLTRMLTA

Reference peptide no. 12 = target: T8, Reference peptide no. 12
T8 construct: hIL-2 15-mer, first library, on microarray; also called peptide 12
T8 peptide: PKLTRMLTFKFYMPK

B1: NARA1 (antibody, mouse IgG2a, kappa, V domains shown)
VH: QVQLQQSGAELVRPGTSVKVSCKASGYAFTNYLIEWVKQRPGQGLEWIGVINPGSGGTNYNEKFKGKATLTADKSSSTAYMQLSSLTSDDSAVYFCARWRGDGYYAYFDVWGAGTTVTVSS
VL: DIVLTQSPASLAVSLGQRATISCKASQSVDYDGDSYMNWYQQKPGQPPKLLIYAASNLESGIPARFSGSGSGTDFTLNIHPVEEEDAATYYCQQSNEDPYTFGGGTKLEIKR
notes: Mouse monoclonal from hybridoma; Isotype controls used were mouse IgG2a; also called anti-IL2 (NARA1) antibody; monoclonal antibody NARA1
signal intensity after subtraction of control signal (Reference peptide no. 43): 507 AU
signal intensity after subtraction of control signal (Reference peptide no. 49): 1490 AU
signal intensity after subtraction of control signal (Reference peptide no. 45): 0 AU
signal intensity after subtraction of control signal (Reference peptide no. 44): 432 AU
signal intensity after subtraction of control signal (Reference peptide no. 13): 224 AU
signal intensity after subtraction of control signal (Reference peptide no. 47): 251 AU
signal intensity after subtraction of control signal (Reference peptide no. 42): 162 AU
signal intensity after subtraction of control signal (Reference peptide no. 12): 1130 AU

— patent US20170183403A1 (UNIVERSIT T Z RICH, published 2017)
